Laboratory results taken from patent US20240279288A1, “APPLICATION OF PLANT JAZ PROTEINS AND DERIVED POLYPEPTIDES IN PREVENTION AND TREATMENT OF HUMAN AND ANIMAL TUMORS” (ANYANG INSTITUTE OF SINO-COTTON INDUSTRY INNOVATION, priority 2021, published 2024).

B1: GhJAZ1 after deletion of NT domain: GhJAZ1 mutant with NT domain deleted, protein sequence SEQ ID No. 83 (protein)
chain: MSSCSESTAMKPARSPEANGTPVVPPPTMNLFPLNDKSDDVCGRNGGNPKNLTSMDLFPQQAGLASKDDSPNKLEPQTAPMTIFYGGQVIVFNDFPANKAKEIMLLASNSSSQSNNSFNPIPFTSSIARSPIESSIGVPPTSKPVHPAQRAVPGDLPIARRASLHRFLEKRKDRITAKAPYQINNSAAAPSLSGDNKSWLGLAAQSP
B2: GhJAZ1: cotton JAZ1 protein, gene number Gh_A05G0260, sequence SEQ ID No. 4; prokaryotically expressed with His tag, about 30 KD (protein)
chain: MSSCSESTAMKPARSPEKPSFAQTCNLLSQYLKEKGSFGDLSLGMTCNVEANGTPVVPPPTMNLFPLNDKSDDVCGRNGGNPKNLTSMDLFPQQAGLASKDDSPNKLEPQTAPMTIFYGGQVIVFNDFPANKAKEIMLLASNSSSQSNNSFNPIPFTSSIARSPIESSIGVPPTSKPVHPAQRAVPGDLPIARRASLHRFLEKRKDRITAKAPYQINNSAAAPSLSGDNKSWLGLAAQSP
modifications: His tag
notes: prokaryotically expressed with His tag, about 30 KD

Target: uPAR (Homo sapiens, UniProt Q03405)
Sequence (Q03405 23-305): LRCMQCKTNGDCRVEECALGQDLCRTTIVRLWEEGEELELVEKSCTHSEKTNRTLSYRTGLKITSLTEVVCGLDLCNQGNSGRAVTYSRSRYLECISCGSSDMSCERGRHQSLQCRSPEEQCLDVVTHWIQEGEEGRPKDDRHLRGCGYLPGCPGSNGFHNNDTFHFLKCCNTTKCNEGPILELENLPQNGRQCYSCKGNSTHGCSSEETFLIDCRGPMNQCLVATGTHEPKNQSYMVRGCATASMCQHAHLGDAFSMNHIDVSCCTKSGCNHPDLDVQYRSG
Assay: Yeast two hybrid with uPAR
Format: binding
Parameters: the CDS of the above genes was subcloned to pGADT7 (YouBio, VT1639); expressed in transfected cells; host or cells: yeast Y2HGold
Excerpt: […]
In order to explore how GhJAZ1 enters cancer cells, we cloned the genes of most tumor surface receptors, including uPAR (NCBI database accession number of NM_002659.4), CCK1R (NP_000721.1), CCK2R (NP_001350481.1), HER2 (NP_004439.2), GRPR (NP_005305.1), MUC1 (NP_001358649.1), VEGFR1 (NP_002010.2), Insulin receptor (NM_000208.4), NTR (XM_011528827.2), PSMA (XM_017017432.1), TFR1 (NM_001128148.3), TFR2 (NM_003227.4), PEPT1 (NM_005073.4), APN (NM_001150.3). […] We detected the interaction of GhJAZ1 with uPA (as the ligand of uPAR, NCBI database accession number of NP_002649.2) and uPAR by yeast two hybrid (the steps of the experiment as Example 3). […]

Molecule | interaction with uPAR
B1 | significantly weakened
B2 | interacted
